This is an account of results in article PMC4052767 (Genes & Development, 2014).

First the molecules themselves.
T1: Yeast Hat2p (full length) with N-terminal 6xHis tag (yeast (Saccharomyces cerevisiae), UniProt P39984 1-401)
T1 sequence: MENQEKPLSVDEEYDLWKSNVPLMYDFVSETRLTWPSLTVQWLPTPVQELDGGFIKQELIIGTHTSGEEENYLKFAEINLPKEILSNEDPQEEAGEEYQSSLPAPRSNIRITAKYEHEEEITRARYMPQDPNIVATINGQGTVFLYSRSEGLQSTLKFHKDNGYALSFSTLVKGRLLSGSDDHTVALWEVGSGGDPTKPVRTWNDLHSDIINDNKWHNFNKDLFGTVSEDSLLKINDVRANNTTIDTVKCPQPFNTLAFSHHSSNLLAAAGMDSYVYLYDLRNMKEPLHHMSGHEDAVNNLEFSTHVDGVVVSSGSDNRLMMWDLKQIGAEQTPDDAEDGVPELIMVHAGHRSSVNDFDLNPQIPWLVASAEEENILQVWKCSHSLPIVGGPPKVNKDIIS

B1: Yeast Hat1p (1-320) (enzyme)
chain: MSANDFKPETWTSSANEALRVSIVGENAVQFSPLFTYPIYGDSEKIYGYKDLIIHLAFDSVTFKPYVNVKYSAKLGDDNIVDVEKKLLSFLPKDDVIVRDEAKWVDCFAEERKTHNLSDVFEKVSEYSLNGEEFVVYKSSLVDDFARRMHRRVQIFSLLFIEAANYIDETDPSWQIYWLLNKKTKELIGFVTTYKYWHYLGAKSFDEDIDKKFRAKISQFLIFPPYQNKGHGSCLYEAIIQSWLEDKSITEITVEDPNEAFDDLRDRNDIQRLRKLGYDAVFQKHSDLSDEFLESSRKSLKLEERQFNRLVEMLLLLNNS
B2: Hat1p A202D (enzyme)
chain: B1 chain with A202D
B3: Hat1p Y37A (enzyme)
chain: B1 chain with Y37A
B4: Hat1p Y196A (enzyme)
chain: B1 chain with Y196A
B5: Hat1p A163Y (enzyme)
chain: B1 chain with A163Y
B6: Hat1p Y194A (enzyme)
chain: B1 chain with Y194A

Substitutions are numbered along the chain they refer to. In names and notes the source's numbering stands.

The target of the first assay is T1, Yeast Hat2p (full length) with …. Nature of the assay: pull-down.
Regarding B1, the binding result is on record as “binds”.

Regarding B2, the binding result was “binds”.

On to B3, for which the binding result is “binds”.

Regarding B4, the binding result is reported as “binds”.

For B5, the binding result was “binds”.

For B6, the binding result is reported as “binds”.

For the next assay the target is unchanged. Nature of the assay: crystal structure.
Consider ARTKQTARKSTGGKA [H3 peptide (residues 1-15), unmodified], for which the binding result was “binds”.
